Consider 45 variants from the Human Domainome abundance scans (Beltran et al. 2025).

B1: Protein piccolo, residues 1058 to 1114; numbered along this chain, Q9Y6V0 (parent)
chain: TCPLCKTELNIGSKDPPNFNTCTECKNQVCNLCGFNPTPHLTEIQEWLCLNCQTQRA

± gives the uncertainty stated by the source.

In this series the parent is B1. The series can be described thus: abundance fitness (aPCA) (normalised: wild type 0, dead -1); higher = more abundant; growth selection in yeast, the domain comes from the species named. Conditions: Homo sapiens.
On to TCPLCKTELNKGSKDPPNFNTCTECKNQVCNLCGFNPTPHLTEIQEWLCLNCQTQRA [I11K], for which the abundance fitness is -0.104 ± 0.15.

With TCPLCKTELNWGSKDPPNFNTCTECKNQVCNLCGFNPTPHLTEIQEWLCLNCQTQRA [I11W], the abundance fitness is -0.333 ± 0.11.

Regarding TCPLCKTELNIGSKDPPNFNTCVECKNQVCNLCGFNPTPHLTEIQEWLCLNCQTQRA [T23V], the abundance fitness was determined as 0.067 ± 0.1.

For TCPLCKTELNIGSKDPPNCNTCTECKNQVCNLCGFNPTPHLTEIQEWLCLNCQTQRA [F19C], the abundance fitness was -0.347 ± 0.12.

TCPLCKTQLNIGSKDPPNFNTCTECKNQVCNLCGFNPTPHLTEIQEWLCLNCQTQRA [E8Q]: the abundance fitness was -0.178 ± 0.099.

For the variant TCPLCKTELNIGSKDPPNFNTCTECKNQVCNLCGFNPTPVLTEIQEWLCLNCQTQRA [H40V], the abundance fitness amounted to 0.051 ± 0.1.

Take TCPLCKTELNIGSKDPPNFNTCTECKNQVCNLCGFNPTPILTEIQEWLCLNCQTQRA [H40I]: the abundance fitness was -0.018 ± 0.18.

TCPLPKTELNIGSKDPPNFNTCTECKNQVCNLCGFNPTPHLTEIQEWLCLNCQTQRA [C5P]: the abundance fitness is -1.01 ± 0.089.

With TCPLGKTELNIGSKDPPNFNTCTECKNQVCNLCGFNPTPHLTEIQEWLCLNCQTQRA [C5G], the abundance fitness is -0.685 ± 0.088.

As to TCPLCKTELNIGSKDPFNFNTCTECKNQVCNLCGFNPTPHLTEIQEWLCLNCQTQRA [P17F], the abundance fitness was -0.245 ± 0.12.

For the variant TCPLCKTELNIGSKDPPNFNTCTECKNQYCNLCGFNPTPHLTEIQEWLCLNCQTQRA [V29Y], the abundance fitness was -0.082 ± 0.077.

For TCPLCKTELNIGSKDPPNFNTCTECKNQPCNLCGFNPTPHLTEIQEWLCLNCQTQRA [V29P], the abundance fitness was -0.545 ± 0.085.

Regarding TCPLCKTELNIGNKDPPNFNTCTECKNQVCNLCGFNPTPHLTEIQEWLCLNCQTQRA [S13N], the abundance fitness was -0.146 ± 0.18.

On to TCPLCKTELNIGSKDPPNFNTCTECKNQVCNLCGFNPTPHLTEIQRWLCLNCQTQRA [E46R], for which the abundance fitness is -0.085 ± 0.1.

On to TCPLCKTELNIGSKDPPNFNTCTECKNQVCNLCGFNPTPHLTEIQEWLCLNKQTQRA [C52K], for which the abundance fitness was -0.801 ± 0.29.

In the case of TCPLCKTELNIGSKDPPNFNTCTECKNQVCNLCGFNPTPHLTEIQEWLCLNHQTQRA [C52H], the abundance fitness is -0.273 ± 0.17.

Regarding TCPLCKTELNIGSKDPPNFNTCTECKNQVCTLCGFNPTPHLTEIQEWLCLNCQTQRA [N31T], the abundance fitness is -0.173 ± 0.14.

As for TCPLCKTELNIGSKDPPNFNTCTECKNQVCILCGFNPTPHLTEIQEWLCLNCQTQRA [N31I], the abundance fitness was -0.121 ± 0.16.

Consider TCPVCKTELNIGSKDPPNFNTCTECKNQVCNLCGFNPTPHLTEIQEWLCLNCQTQRA [L4V], for which the abundance fitness is -0.308 ± 0.095.

On to TCPPCKTELNIGSKDPPNFNTCTECKNQVCNLCGFNPTPHLTEIQEWLCLNCQTQRA [L4P], for which the abundance fitness is -0.693 ± 0.15.

TCPLCKTELNIPSKDPPNFNTCTECKNQVCNLCGFNPTPHLTEIQEWLCLNCQTQRA [G12P]: the abundance fitness amounted to 0.027 ± 0.13.

Turning to TCPLCKTELSIGSKDPPNFNTCTECKNQVCNLCGFNPTPHLTEIQEWLCLNCQTQRA [N10S], the abundance fitness was -0.08 ± 0.086.

Turning to TCPLCKTELMIGSKDPPNFNTCTECKNQVCNLCGFNPTPHLTEIQEWLCLNCQTQRA [N10M], the abundance fitness came to 0.042 ± 0.099.

For TCPLCKTELNIGSKDPPNFNTCTECKMQVCNLCGFNPTPHLTEIQEWLCLNCQTQRA [N27M], the abundance fitness was -0.088 ± 0.16.

Consider TCPLCKTELNIGSKDPPNFNTCTECKHQVCNLCGFNPTPHLTEIQEWLCLNCQTQRA [N27H], for which the abundance fitness is -0.024 ± 0.19.

Take TCPLCKTELNIGSKDPPNFNTCTECKDQVCNLCGFNPTPHLTEIQEWLCLNCQTQRA [N27D]: the abundance fitness is -0.094 ± 0.12.

Turning to TCPLCKTELNIGSKDPPNFNTCTECKNQVCNLCGFNPTPHLTEIQEWLILNCQTQRA [C49I], the abundance fitness is -1.05 ± 0.28.

Take TCPLCKTELNIGSKDPPNFNTCTECKNQVCNLCGFQPTPHLTEIQEWLCLNCQTQRA [N36Q]: the abundance fitness was -0.011 ± 0.15.

Regarding TCPLCKTELNIGSKDPPNFNTCTECKNQVCNLCGFSPTPHLTEIQEWLCLNCQTQRA [N36S], the abundance fitness was -0.12 ± 0.095.

For TCPLCKTELNIGSKDPPNFNTCTECKNQVCNLCGFFPTPHLTEIQEWLCLNCQTQRA [N36F], the abundance fitness came out at 0.044 ± 0.14.

As for TCPLCKTELNIGSKDPPWFNTCTECKNQVCNLCGFNPTPHLTEIQEWLCLNCQTQRA [N18W], the abundance fitness is -0.346 ± 0.12.

As for TCPLCKTELNIGSKDPPNFNTCTENKNQVCNLCGFNPTPHLTEIQEWLCLNCQTQRA [C25N], the abundance fitness was -0.66 ± 0.14.

Take TCPLCKTELNIGSKDEPNFNTCTECKNQVCNLCGFNPTPHLTEIQEWLCLNCQTQRA [P16E]: the abundance fitness is -0.187 ± 0.13.

On to TCPLCKSELNIGSKDPPNFNTCTECKNQVCNLCGFNPTPHLTEIQEWLCLNCQTQRA [T7S], for which the abundance fitness was -0.09 ± 0.081.

As for TCPLCKTELNIGSKDPPNFNTCTECKNQVCNLPGFNPTPHLTEIQEWLCLNCQTQRA [C33P], the abundance fitness was -0.795 ± 0.14.

Regarding TCPLCKTELNIGSKDPPNFNLCTECKNQVCNLCGFNPTPHLTEIQEWLCLNCQTQRA [T21L], the abundance fitness is -0.098 ± 0.089.

For TCPLCKTELNIGSKDPPNFNTQTECKNQVCNLCGFNPTPHLTEIQEWLCLNCQTQRA [C22Q], the abundance fitness is -0.791 ± 0.17.

As for VCPLCKTELNIGSKDPPNFNTCTECKNQVCNLCGFNPTPHLTEIQEWLCLNCQTQRA [T1V], the abundance fitness is -0.202 ± 0.25.

On to TCPLCKTELNIGSKDPPNFNTCTECKNQVCNLCGFNPTPHLTEIQEWLCLNCDTQRA [Q53D], for which the abundance fitness is 0.099 ± 0.22.

For the variant TCPLCKTELNIGSKDPPNFNTCTECKNQVCNLCGFNPTPHLTEIQEWLCLNCCTQRA [Q53C], the abundance fitness is -0.464 ± 0.15.

Regarding TCPLCKTELNIGSKDPPNFNTCTECKNQVCNLCGYNPTPHLTEIQEWLCLNCQTQRA [F35Y], the abundance fitness is 0.022 ± 0.15.

In the case of TCPLCKTELNIGSKDPPNFNTCTECKNQVCNLCGFNPTPHLCEIQEWLCLNCQTQRA [T42C], the abundance fitness was determined as 0.064 ± 0.14.

Regarding TCPLCKTELNIGSKDPPNFNTCTQCKNQVCNLCGFNPTPHLTEIQEWLCLNCQTQRA [E24Q], the abundance fitness is -0.135 ± 0.11.

On to TCPLCKTELNIGSKDPPNFNTCTTCKNQVCNLCGFNPTPHLTEIQEWLCLNCQTQRA [E24T], for which the abundance fitness worked out at 0.034 ± 0.099.

Turning to TCPLCKTELNIGSKDPPNFNTCTMCKNQVCNLCGFNPTPHLTEIQEWLCLNCQTQRA [E24M], the abundance fitness was -0.06 ± 0.11.
